Source: patent publication US20220073565A1 (University of Washington, published 2022)
No end group written: not given here.

How the values were obtained:
[1] = molecular target: dCas9-VP64-RFP-degronSwitcha; assay: cell-based or functional assay
[2] = molecular target: T1, YFP-degronSwitcha; assay: cell-based or functional assay
T1 sequence: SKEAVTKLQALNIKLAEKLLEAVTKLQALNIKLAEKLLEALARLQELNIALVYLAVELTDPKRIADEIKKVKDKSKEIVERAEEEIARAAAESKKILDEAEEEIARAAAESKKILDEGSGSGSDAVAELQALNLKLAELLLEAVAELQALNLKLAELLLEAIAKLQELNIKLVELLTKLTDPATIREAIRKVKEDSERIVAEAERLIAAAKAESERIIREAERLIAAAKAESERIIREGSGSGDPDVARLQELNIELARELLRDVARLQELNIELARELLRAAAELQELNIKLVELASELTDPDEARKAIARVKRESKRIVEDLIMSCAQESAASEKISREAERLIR

[3] = molecular target: SynTF-RFP-degronSwitcha; assay: cell-based or functional assay
[4] = molecular target: T2, mSin3A-PAH2 domain (UniProt Q60520 300-383, biotin); assay: bio-layer interferometry, Biotin-mSin3A-PAH2 on streptavidin tips
T2 construct: domain: PAH2; 0.1 µg immobilised on streptavidin biosensor tips; also called Biotin-mSin3A-PAH2; PAH2 domain of the mSin3A transcriptional repressor
T2 sequence (looked up): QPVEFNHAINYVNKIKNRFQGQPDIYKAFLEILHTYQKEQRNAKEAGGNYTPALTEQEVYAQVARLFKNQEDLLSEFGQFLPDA
Source text: FIG. 12a-d: Designed Mad1-SID LOCKR switches for key-dependent transcriptional repression. FIG. 12a. Crystal structure of the interaction between Mad1-SID domain (white) and the PAH2 domain of the mSin3A transcriptional repressor (black) (PDB ID: 1E91). Caging of the Mad1-SID domain should enable key-dependent recruitment of the transcriptional repressor mSin3A enabling precise epigenetic regulation. FIG. 12b. Designed Mad1-LOCKR switches, with Cage component encoding the Mad1-SID sequence at different positions (dark gray). FIG. 12c. SDS-PAGE gel showing successfully purified 1fix302Mad1 (1) , 1fix_309_Mad1 (2) and MBP_Mad1 (3). FIG. 12d. Biolayer interferometry analysis of key-activated binding of the Mad1-LOCKR switches to the purified rnSin3A-PAH2 domain. MBP-Mad1 is a positive control for mSin3a-PAH2 binding. […] Kinetic assays were performed by immobilizing 0.1μg of Biotin-mSin3A-PAH2 protein on Streptavidin biosensor tips (ForteBio). Protein cages were tested at 50 nM in presence or absence of 500 nM Keyₐ.

[5] = molecular target: T3, Bcl2 (UniProt P10415 1-207, limits assumed, biotinylated); assay: bio-layer interferometry (Octet), Bcl2 immobilised, switch with nine residue toehold
T3 construct: Loaded on streptavidin biosensors; also called biotinylated Bcl2

[6] = molecular target: T4, BclB (UniProt Q9HD36 11-178, limits assumed); assay: global fit of the thermodynamic model to bio-layer interferometry data (target or key immobilised)
T4 construct: also called Bcl2 homolog BclB
T4 sequence (looked up): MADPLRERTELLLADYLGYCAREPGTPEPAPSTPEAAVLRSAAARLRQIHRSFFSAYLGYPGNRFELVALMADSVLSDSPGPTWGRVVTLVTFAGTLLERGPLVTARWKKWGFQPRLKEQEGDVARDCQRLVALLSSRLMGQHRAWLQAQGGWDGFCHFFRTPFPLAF

[7] = molecular target: T3, Bcl2; assay: as above
[8] = molecular target: T3, Bcl2; assay: bio-layer interferometry, Bcl2 immobilised, 250 nM BimLOCKR with and without key
Procedure: The range of key concentrations over which BimLOCKR is activated can be controlled by tuning KCK by varying the length of the key since the interaction energy is roughly proportional to the total surface area of interacting residues. […] Truncating an additional five residues completely negates key activation, indicating the equilibria are very sensitive to small changes in free energy as expected from our model (FIG. 2d). […] Bio-layer interferometry experiments were performed with target immobilized assayed against the switch with or without key in solution, as well as with key immobilized and assayed against the switch alone or with target in solution. […] This fit has an RMSE (root-mean-square-error) of 0.072 nm to the observed BLI data.
BLI measurements were made on an Octet® RED96 System (ForteBio) with streptavidin (SA) coated biosensors and all analysis was performed within ForteBio Data Analysis Software version 9.0.0.10. Assays were performed with protein diluted into HBS-EP+ Buffer from GE (10 mM HEPES, 150 mM NaCl, 3 mM EDTA, 0.05% v/v Surfactant P20, 0.5% non-fat dry milk, pH7.4 at room temperature). Biotinylated Bcl2 was loaded onto the SA tips to a threshold of 0.5 nm programmed into the machine's protocol.

T3 sequence (P10415 1-207 limits assumed): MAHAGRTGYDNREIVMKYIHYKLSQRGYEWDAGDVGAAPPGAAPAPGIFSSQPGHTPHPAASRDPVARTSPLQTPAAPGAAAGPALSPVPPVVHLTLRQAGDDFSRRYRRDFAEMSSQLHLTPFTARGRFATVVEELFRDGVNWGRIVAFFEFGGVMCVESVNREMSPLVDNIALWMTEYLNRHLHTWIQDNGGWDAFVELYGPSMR

B1: Keya-BFP (designed binder, not shown: large carriers)
chain: EARKAIARVKRESKRIVEDAERLIREAAAASEKISREAERLIREAAAASEKISRE
modifications: also: C-terminal fusion to BFP (mTagBFP2), linker not given here
In the case of B1, the reduction of RFP fluorescence upon induction of Key at 31.25 nM E2 [1] is reported as 78%, the reduction of pTet7x-YFP reporter fluorescence upon induction of Key at 31.25 nM E2 [1] is reported as 41% and the reduction of YFP fluorescence (flow cytometry, S. cerevisiae) [2] is reported as < 73%.

B2: Keya-BFP-NLS (designed binder, not shown: large carriers)
chain: B1 chain
B2 showed a reduction of RFP fluorescence at 31.25 nM E2, maximal Key induction [3] of 61% and a reduction of pSynTF-YFP reporter fluorescence at 31.25 nM E2, maximal Key induction [3] of 82%.

B3: 1fix_302_Mad1 (designed binder)
chain: MGSHHHHHHGSGSENLYFQGSKEAAKKLQDLNIELARKLLEASTKLQRLNIRLAEALLEAIARLQELNLELVYLAVELTDPKRIRDEIKEVKDKSKEIIRRAEKEIDDAAKESKKILEEARKAIRDAAEESRKILEEGSGSGSDALDELQKLNLELAKLLLKAIAETQDLNLRAAKAFLEAAAKLQELNIRAVELLVKLTDPATIRRALEHAKRRSKEIIDEAERAIRAAKRESERIIEEARRLIEKAKEESERIIREGSGSGDPDIKKLQDLNIELARELLRAHAQLQRLNLELLRELLRALAQLQELNLDLLRLASELTNIQMLLEAADYLERESKRIVEDAERLIREAAAASEKISREAERSIREAAAASEKISRE
notes: Optional His-TEV tag printed in parentheses
B3: no binding [4].

B4: BimLOCKRb (nine residue toehold on the latch) (designed binder)
chain: MGSSHHHHHHSSGLVPRGSHMSHAAVIKLSDLNIRLLDKLLQAVIKLTELNAELNRKLIEALQRLFDLNVALVHLAAELTDPKRIADEIKKVKDKSKEIVERAEEEIARAAAESKKILDEAEEEIARAAAESKKILDEGSGSGSDAVAELQALNLKLAELLLEAVAELQALNLKLAELLLEAIAKLQELNIKLVELLTKLTDPATIREAIRKVKEDSERIVAEAERLIAAAKAESERIIREAERLIAAAKAESERIIREGSGSNDPQVAQNQETFIELARDALRLVAENQEAFIEVARLTLRAAALAQEVAIKAVEAASEGGSGSGNEIWIAQELRRIGDEFNAYYAEHKEIHDKLRKKNKKAREDLKKKADE
notes: Entry is printed with full latch and optional His tag; tested with a nine residue toehold (latch truncated by nine residues)
B4 was tested, and the “fold activation of binding by the cognate key (with key against without key)” value [5] was 22 fold.

B5: BimLOCKR (18-residue extension with a 9 residue toehold) (designed binder)
chain: MGSSHHHHHHSSGLVPRGSHMSKEAVTKLQALNIKLAEKLLEAVTKLQALNIKLAEKLLEALARLQELNIALVYLAVELTDPKRIADEIKKVKDKSKEIVERAEEEIARAAAESKKILDEAEEEIARAAAESKKILDEGSGSGSDAVAELQALNLKLAELLLEAVAELQALNLKLAELLLEAIAKLQELNIKLVELLTKLTDPATIREAIRKVKEDSERIVAEAERLIAAAKAESERIIREAERLIAAAKAESERIIREGSGSGDPDVARLQELNIELARELLRDVARLQELNIELARELLRAAAELQELNIKLVELASELTDEIWIAQELRRIGDEFNAYYADAERLIREAAAASEKISREAERLIREAA
notes: the tested form has the latch truncated by nine residues at the C-terminus (toehold); also called BimLOCKRa
For B5, the Kd [6] was 32 nM, the Kd [7] was 28 nM and the “fold activation of binding by the key (with key against without key)” value [8] was ~40 fold.

B6: BimLOCKRc (nine residue toehold on the latch) (designed binder)
chain: MGSSHHHHHHSSGLVPRGSHMSLEAVLKLAELNLKLSDKLAEAVQKLAALLNKLLEKLSEALQRLFELNVALVTLAIELTDPKRIADEIKKVKDKSKEIVERAEEEIARAAAESKKILDEAEEEIARAAAESKKILDEGSGSGSDAVAELQALNLKLAELLLEAVAELQALNLKLAELLLEAIAKLQELNIKLVELLTKLTDPATIREAIRKVKEDSERIVAEAERLIAAAKAESERIIREAERLIAAAKAESERIIREGSGSNDPLVARLQELLIEHARELLRLVATSQEIFIELARAFLANAAQLQEAAIKAVEAASENGSGEIWIAQELRRIGDEFNAYYAQNQKLLKDHKRAQEKLNRELEELKKKHKK
notes: as for B4
B6 was tested, and the “fold activation of binding by the cognate key (with key against without key)” value [5] was 8 fold.
